Results from patent US20220112249A1 (OXFORD UNIVERSITY INNOVATION, published 2022).

Biological target: T1, fHbp V1.1 with PorA VR2 P1.16 loop in position 5 (P5) (Neisseria meningitidis, UniProt E6MV22 20-274)
T1 sequence: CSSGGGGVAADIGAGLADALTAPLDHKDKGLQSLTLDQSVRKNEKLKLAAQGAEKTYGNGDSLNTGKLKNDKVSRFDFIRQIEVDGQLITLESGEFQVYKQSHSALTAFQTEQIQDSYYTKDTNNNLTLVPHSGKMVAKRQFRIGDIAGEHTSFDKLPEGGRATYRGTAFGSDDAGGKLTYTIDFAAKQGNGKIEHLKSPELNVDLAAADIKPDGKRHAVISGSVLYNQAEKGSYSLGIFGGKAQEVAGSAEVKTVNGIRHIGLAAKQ
Assay: SPR (BIAcore), fHbp:PorA coupled to the chip, CFH (fH67) flowed over

B1: Complement Factor H (CFH) domains 6 and 7 (other)
chain: TLKPCDYPDIKHGGLYHENMRRPYFPVAVGKYYSYYCDEHFETPSGSYWDHIHCTQDGWSPAVPCLRKCYFPYLENGYNQNYGRKFVQGKSIDVACHPGYALPKAQTTVTCMENGWSPTPRCI
notes: domain: fH67 (CFH domains 6-7); also called fH67
**Q.** Does B1 bind?
**A.** Result: no binding (tested: 0.5-32 nM)
